According to the supplement of paper PMC10201428:
± gives the standard deviation of the averaged measurements.

What was measured:
[1] = tested on: VchCAST RNA-guided transposition machinery (E. coli BL21(DE3) host, lacZ target); experiment: relative integration efficiency (T-RL orientation) vs wild-type transposon end (log2 (normalized fold change)); transposon end mutated: right end (5 bp flank + 75 bp right end); higher = more efficient transposition
Procedure, shortened: (§1)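 Pools of 1549 left-end or 1849 right-end barcoded transposon variants were cloned into a pUC57 mini-transposon donor and co-transformed into E. coli BL21(DE3) with a T7-driven effector plasmid carrying a CRISPR array, tniQ-cas8-cas7-cas6 and tnsA-tnsB-tnsC. Plating used 0.1 mM IPTG at 37°C for 18 h, and input plasmids and genomic integration junctions were PCR-amplified for Illumina sequencing, with two biological output replicates and four reference barcodes. Relative integration efficiency is the log-transformed fold change of output over input barcode abundance, normalised to the reference barcodes.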

[2] = tested on: VchCAST RNA-guided transposition machinery (E. coli BL21(DE3) host, lacZ target); experiment: relative integration efficiency (T-LR orientation) vs wild-type transposon end (log2 (normalized fold change)); transposon end mutated: right end (5 bp flank + 75 bp right end); higher = more efficient transposition
Procedure, shortened: as §1

Sequence	relative integration efficiency (log2) [1]	relative integration efficiency (log2) [2]
ACATTTGTTGATACAACCATAAAATGATAATTACACCCATAAATTGATAATTATCACACCCATAAATTGATATTGCCTCTGATCATAGTCAACTGTATATAAATACAGTTCAGACCAGCACCGACAC	-0.116 ± 0.21	0.274 ± 0.022
ACATTTGTTGATACAACCATAAAATGATAATTACACCCATAAATTGATAATTATCACACCCATAAATTGATATTGCCTCTGATCATAGTCAATGTGATAACAATCACAGAAGACCAAGCACCGACAC	0.245 ± 0.16	-0.0829 ± 0.35
ACATTTGTTGATACAACCATAAAATGATAATTACACCCATAAATTGATAATTATCACACCCATAAATTGATATTGCCTCTGATCATAGTCACAACCATAAAATGATAATTAGACCAAGCACCGACAC	-0.196 ± 0.19	-0.387 ± 0.086
ACATTTGTTGATACAACCATAAAATGATAATTACACCCATAAATTGATAATTATCACACCCATAAATTGATATTGCCTCTGATCATAGTCAGACAACCATAAAATGATAATTACCAAGCACCGACAC	-0.231 ± 0.065	-0.436 ± 0.47
ACATTTGTTGATACAACCATAAAATGATAATTACACCCATAAATTGATAATTATCACACCCATAAATTGATATTGCCTCTGATCATAGTCAGACCAACAACCATAAAATGATAATTAGCACCGACAC	0.0312 ± 0.094	-0.0679 ± 0.32
ACATTTGTTGATACAACCATAAAATGATAATTACACCCATAAATTGATAATTATCACACCCATAAATTGATATTGCCTCTGATCATAGTCAGACCAACATTTGTGAGCGGATAACAAGCACCGACAC	-0.379 ± 0.087	-0.684 ± 0.077
ACATTTGTTGATACAACCATAAAATGATAATTACACCCATAAATTGATAATTATCACACCCATAAATTGATATTGCCTCTGATCATAGTCAGACCAACCATAAAATGATAATTACAAGCACCGACAC	-0.253 ± 0.23	-0.0296 ± 0.24
ACATTTGTTGATACAACCATAAAATGATAATTACACCCATAAATTGATAATTATCACACCCATAAATTGATATTGCCTCTGATCATAGTCAGACCACAACCATAAAATGATAATTAAGCACCGACAC	-0.0173 ± 0.24	-0.205 ± 0.37
ACATTTGTTGATACAACCATAAAATGATAATTACACCCATAAATTGATAATTATCACACCCATAAATTGATATTGCCTCTGATCATAGTCAGACCCAACCATAAAATGATAATTAAAGCACCGACAC	0.0847 ± 0.29	0.192 ± 0.26
ACATTTGTTGATACAACCATAAAATGATAATTACACCCATAAATTGATAATTATCACACCCATAAATTGATATTGCCTCTGATCATAGTCAGATGAATTTTTATGCAAAGACCAACAGCACCGACAC	0.552 ± 0.3	0.652 ± 0.2
ACATTTGTTGATACAACCATAAAATGATAATTACACCCATAAATTGATAATTATCACACCCATAAATTGATATTGCCTCTGATCATAGTCAGCAACCATAAAATGATAATTAACCAAGCACCGACAC	-0.283 ± 0.15	-0.485 ± 0.41
ACATTTGTTGATACAACCATAAAATGATAATTACACCCATAAATTGATAATTATCACACCCATAAATTGATATTGCCTCTGATCATAGTCAGCTGAAGCGAGACACCGACCAACATTGCACCGACAC	-0.174 ± 0.19	-0.204 ± 0.33
ACATTTGTTGATACAACCATAAAATGATAATTACACCCATAAATTGATAATTATCACACCCATAAATTGATATTGCCTCTGATCATAGTCCAACCATAAAATGATAATTAAGACCAAGCACCGACAC	-0.312 ± 0.44	-0.498 ± 1.1
ACATTTGTTGATACAACCATAAAATGATAATTACACCCATAAATTGATAATTATCACACCCATAAATTGATATTGCCTCTGATCATAGTCGAACTAGTTAACTAGTACGCTCAGACCGCACCGACAC	-0.00349 ± 0.18	0.192 ± 0.2
ACATTTGTTGATACAACCATAAAATGATAATTACACCCATAAATTGATAATTATCACACCCATAAATTGATATTGCCTCTGATCATAGTCTGTGATTGTTATCACATTTCAGACCAAGCACCGACAC	-0.0662 ± 0.076	0.209 ± 0.1
ACATTTGTTGATACAACCATAAAATGATAATTACACCCATAAATTGATAATTATCACACCCATAAATTGATATTGCCTCTGATCATAGTCTTGTGAGCGGATAACAAAGACCAACATGCACCGACAC	0.141 ± 0.16	-0.0553 ± 0.18
ACATTTGTTGATACAACCATAAAATGATAATTACACCCATAAATTGATAATTATCACACCCATAAATTGATATTGCCTCTGATCATATTTAATAATTAATTTATATATTTAAGTCAGGCACCGACAC	0.707 ± 0.19	0.961 ± 0.58
ACATTTGTTGATACAACCATAAAATGATAATTACACCCATAAATTGATAATTATCACACCCATAAATTGATATTGCCTCTGATCATCAACCATAAAATGATAATTAAGTCAGACCAAGCACCGACAC	0.146 ± 0.35	0.201 ± 0.068
ACATTTGTTGATACAACCATAAAATGATAATTACACCCATAAATTGATAATTATCACACCCATAAATTGATATTGCCTCTGATCATGGTGTCTCGCTTCAGCAGTCAGACCAACATTGCACCGACAC	-0.125 ± 0.18	-0.507 ± 0.025
ACATTTGTTGATACAACCATAAAATGATAATTACACCCATAAATTGATAATTATCACACCCATAAATTGATATTGCCTCTGATCATTTACTTTTGGTTACATATTTAGTCAGACCAAGCACCGACAC	0.0213 ± 0.19	0.713 ± 0.049
ACATTTGTTGATACAACCATAAAATGATAATTACACCCATAAATTGATAATTATCACACCCATAAATTGATATTGCCTCTGATCATTTGCATAAAAATTCATCTAGTCAGACCAACAGCACCGACAC	-0.15 ± 0.36	-0.0028 ± 0.22
ACATTTGTTGATACAACCATAAAATGATAATTACACCCATAAATTGATAATTATCACACCCATAAATTGATATTGCCTCTGATCCAACCATAAAATGATAATTAATAGTCAGACCAAGCACCGACAC	0.156 ± 0.25	0.046 ± 0.066
ACATTTGTTGATACAACCATAAAATGATAATTACACCCATAAATTGATAATTATCACACCCATAAATTGATATTGCCTCTGATCGTTTTAAGGATGACTTCAGTCGCGCCGTACTTCGCACCGACAC	-0.207 ± 0.2	-0.209 ± 0.13
ACATTTGTTGATACAACCATAAAATGATAATTACACCCATAAATTGATAATTATCACACCCATAAATTGATATTGCCTCTGCAACCATAAAATGATAATTAATCATAGTCAGACCAAGCACCGACAC	-0.336 ± 0.3	-0.129 ± 0.36
ACATTTGTTGATACAACCATAAAATGATAATTACACCCATAAATTGATAATTATCACACCCATAAATTGATATTGCCTCTGGCGCTCTGTACCCCGCTCGGTCCTCCCGCGCATCGCGCACCGACAC	0.194 ± 0.14	-0.0593 ± 0.17
ACATTTGTTGATACAACCATAAAATGATAATTACACCCATAAATTGATAATTATCACACCCATAAATTGATATTGCCTCTGGCTAGCACTATACCTAGGACTGAGCTAGCCGTCAACGCACCGACAC	-4.7 ± 0.55	0.877 ± 0.31
ACATTTGTTGATACAACCATAAAATGATAATTACACCCATAAATTGATAATTATCACACCCATAAATTGATATTGCCTCTGGCTAGCATTATACCTAGGACTGAGCTAGCTGTCAACGCACCGACAC	-2.99 ± 0.27	1.91 ± 0.064
